Source: patent US10442850

Columns and labels:
[1] = biological target: A1/A3-C1-C2 part of thrombin-activated cFVIII-BDD (canine) (UniProt O18806); test: cell-based or functional assay
[2] = biological target: A1/A3-C1-C2 part of thrombin-activated human FVIII-BDD R1645H (human) (UniProt P00451); test: cell-based or functional assay
Chain of UniProt P00451 (P00451 20-391, chain 1 of 2): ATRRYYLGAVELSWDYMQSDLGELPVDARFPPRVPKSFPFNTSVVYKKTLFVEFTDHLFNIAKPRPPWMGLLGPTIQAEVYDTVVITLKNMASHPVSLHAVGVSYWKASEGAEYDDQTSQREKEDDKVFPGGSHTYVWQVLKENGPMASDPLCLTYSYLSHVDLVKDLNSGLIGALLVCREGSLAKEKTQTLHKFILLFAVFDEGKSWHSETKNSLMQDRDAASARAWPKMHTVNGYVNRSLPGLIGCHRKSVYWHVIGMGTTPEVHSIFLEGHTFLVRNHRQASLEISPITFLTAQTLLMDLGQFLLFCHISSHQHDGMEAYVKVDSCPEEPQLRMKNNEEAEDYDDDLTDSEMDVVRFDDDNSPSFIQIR
Chain of UniProt P00451 (P00451 1709-2351, chain 2 of 2): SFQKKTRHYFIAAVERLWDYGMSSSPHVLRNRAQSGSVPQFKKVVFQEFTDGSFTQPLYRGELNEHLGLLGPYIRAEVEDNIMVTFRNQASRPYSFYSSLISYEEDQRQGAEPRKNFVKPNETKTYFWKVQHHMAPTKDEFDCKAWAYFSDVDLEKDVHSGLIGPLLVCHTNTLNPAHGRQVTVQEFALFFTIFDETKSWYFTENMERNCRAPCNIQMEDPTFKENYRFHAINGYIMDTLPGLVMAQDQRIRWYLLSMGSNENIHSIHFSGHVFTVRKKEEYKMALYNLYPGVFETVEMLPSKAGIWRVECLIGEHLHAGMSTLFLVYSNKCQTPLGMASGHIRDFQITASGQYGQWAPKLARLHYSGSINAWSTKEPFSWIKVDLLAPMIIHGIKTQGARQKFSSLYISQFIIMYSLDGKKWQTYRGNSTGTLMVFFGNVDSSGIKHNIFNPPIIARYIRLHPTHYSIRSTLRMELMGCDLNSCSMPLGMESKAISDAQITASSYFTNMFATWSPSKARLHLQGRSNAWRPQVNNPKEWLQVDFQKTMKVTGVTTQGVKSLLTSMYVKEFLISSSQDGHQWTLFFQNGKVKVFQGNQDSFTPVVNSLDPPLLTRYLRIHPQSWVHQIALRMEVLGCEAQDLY

Chain of UniProt O18806 (O18806 20-385, chain 1 of 2): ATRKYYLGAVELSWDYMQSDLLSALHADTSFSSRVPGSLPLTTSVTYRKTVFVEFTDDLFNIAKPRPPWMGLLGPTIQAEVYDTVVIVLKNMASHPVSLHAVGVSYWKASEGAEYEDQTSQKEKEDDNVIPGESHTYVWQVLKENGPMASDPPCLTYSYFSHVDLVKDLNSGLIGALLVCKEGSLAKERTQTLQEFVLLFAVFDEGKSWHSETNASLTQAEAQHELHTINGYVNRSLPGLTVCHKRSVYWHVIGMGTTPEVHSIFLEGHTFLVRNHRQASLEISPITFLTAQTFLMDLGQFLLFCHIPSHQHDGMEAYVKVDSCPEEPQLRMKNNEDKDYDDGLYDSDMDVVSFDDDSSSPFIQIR
Chain of UniProt O18806 (O18806 1701-2343, chain 2 of 2): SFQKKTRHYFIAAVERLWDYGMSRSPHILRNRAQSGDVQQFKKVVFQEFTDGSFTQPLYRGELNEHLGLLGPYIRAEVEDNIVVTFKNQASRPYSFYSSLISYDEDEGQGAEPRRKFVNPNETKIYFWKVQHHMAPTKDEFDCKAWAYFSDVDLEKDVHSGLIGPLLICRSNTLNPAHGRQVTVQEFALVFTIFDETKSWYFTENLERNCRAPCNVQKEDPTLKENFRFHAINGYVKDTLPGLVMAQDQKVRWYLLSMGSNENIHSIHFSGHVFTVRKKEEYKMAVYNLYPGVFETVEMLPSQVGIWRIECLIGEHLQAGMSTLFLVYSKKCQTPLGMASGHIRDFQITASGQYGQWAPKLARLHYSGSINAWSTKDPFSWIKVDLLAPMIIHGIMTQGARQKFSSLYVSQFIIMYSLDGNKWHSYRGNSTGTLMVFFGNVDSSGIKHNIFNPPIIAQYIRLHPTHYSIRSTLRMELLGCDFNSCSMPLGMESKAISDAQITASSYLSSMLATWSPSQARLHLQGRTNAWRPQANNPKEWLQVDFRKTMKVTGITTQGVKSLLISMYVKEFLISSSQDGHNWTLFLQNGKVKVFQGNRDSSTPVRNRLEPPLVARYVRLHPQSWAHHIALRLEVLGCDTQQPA

half-life of activated FVIII cofactor activity after thrombin activation (purified component Xase assay or clotting assay) (fold (against hFVIII)) [1] | half-life of activated FVIII (Xase assay, A2-domain stability) (fold (against WT hBFVIII)) [2] | Substance
3 |  | A2 domain of thrombin-activated cFVIII-BDD (from UniProt O18806 386-753)
 | 3 | A2 domain of thrombin-activated human FVIII-BDD R1645H (from UniProt P00451 392-759)
